From the nanobody polyreactivity screen of Harvey et al. (2022)

Assay: yeast display, Sf9 membrane polyspecificity reagent, FACS + sequencing; frameworks hold sequencing errors
Summary of the method: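 Sorting gates, low and high (top ~1%), were placed on anti-HA fluorescence to track expression and on streptavidin fluorescence to track reagent binding. A clone's polyreactivity label is taken from the gate it came out of. The reagent was 10% biotinylated, detergent-solubilized Sf9 membrane, applied for 1 hour at 4 °C to galactose-induced yeast display cells.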

With “QVQLVESGGGLVQAGGSLRLSCAASGSTFYFNAMGWYRQAPGKERELVAGIYSGGSTYYADSVKGRFTISRDNAKNTVYLQMNSLKTEDTAVYYCAATWLVERPFSYTEYGYWGQGTQVTVSS” the “polyreactivity (PSR sort gate)” value was “low polyreactivity”.
With “QVQLVESGGGLVQAGGSLRLSCAASGSTFYFNAMGWYRQAPGKERELVAVIDGSGGFTYDADSVKGRFTISRDNAKNTVYLQMNSLKPEDTAVYYCNADLVYNTFIYSGGDEYDYWGQGTQGTVSS” the “polyreactivity (PSR sort gate)” value was “high polyreactivity”.
For “QVQLVESGGGLVQAGGSLRLSCAASGSTFYFNSMGWYRQAPGKERELVAAITSGARTKYADSVKGRFTMSRDNAKITVYLQMNSLKPEDTAVYYCSASGLYYYRYRYYYWGQGTQVTVSS”, the “polyreactivity (PSR sort gate)” value was “high polyreactivity”.
In the case of “QVQLVESGGGLVQAGGSLRLSCAASGSTFYFYAMGGYRQAPGKERELVAVISSGGRTYYADSVKGRFTISRDNAKNTVYLQMNSLKPEDTAVYYCAASWPSSLTYYYWGQGTQVTVSS”, the “polyreactivity (PSR sort gate)” value is reported as “low polyreactivity”.
For “QVQLVESGGGLVQAGGSLRLSCAASGSTFYFYAMGWYRQAPGKEREFVAAITASGGSTYYADSVKGRFTISRDNAKNTVYLQMNSLKPEDTAVYYCAARFSYWKTKRAYDWGQGTQVTVSS”, the “polyreactivity (PSR sort gate)” value was “high polyreactivity”.
With “QVQLVESGGGLVQAGGSLRLSCAASGSTFYFYAMGWYRQAPGKERELVATITTRGGSTYYADSVKGRFTISRDHAKNTLDLQMNILKPEDTAVYYCAREAWYKSYSRIKFGYWGQGTQVTVSS” the “polyreactivity (PSR sort gate)” value was “high polyreactivity”.
For “QVQLVESGGGLVQAGGSLRLSCAASGSTFYFYVMGWYRQAPGKERELVARISWSGGSTYYADSVKGRFTISRDNAKNTVYLQMNSLKPEDTAVYYCARQYKYPSSGEYDSWGQGTQVTVSS”, the “polyreactivity (PSR sort gate)” value was “low polyreactivity”.
With “QVQLVESGGGLVQAGGSLRLSCAASGSTFYGKAMGWYRQAPGKRELLAAITWSGGSTYYADSVKGRFTISRDNAKNTVYLQMNSLKPEDTAVYYCAARNPKSGYNYWGQGTQVTVSS” the “polyreactivity (PSR sort gate)” value was “low polyreactivity”.
In the case of “QVQLVESGGGLVQAGGSLRLSCAASGSTFYGYAMGWSRQAPGKERELDAVINYRGDRTYYADSVKGRFTISRDNAKNTVYLQMNSLKPEDTAVYYCAARYRVYYLPGYEYWGQGTQVTVSS”, the “polyreactivity (PSR sort gate)” value is reported as “high polyreactivity”.
With “QVQLVESGGGLVQAGGSLRLSCAASGSTFYGYAMGWSRQAPGKERELVAAISSSGSRTYYADSVKGRFTISRDNANNPVYLQMNSLKPEDTAVYYCAAVSTLLYYHYYTRDYWGQGTEVTVSS” the “polyreactivity (PSR sort gate)” value was “high polyreactivity”.
In the case of “QVQLVESGGGLVQAGGSLRLSCAASGSTFYGYAMGWYRQAPGKERELVAAITRSGGSTYYADSVKGRFTISRDNAKNTVYLQMNSLKPEDSEVYYCNKYGYKGGVGYDYWGQGTEVTVSS”, the “polyreactivity (PSR sort gate)” value is reported as “high polyreactivity”.
For “QVQLVESGGGLVQAGGSLRLSCAASGSTFYGYAMGWYRQAPGKERELVAAITRSGGSTYYADSVKGRFTISRDNAKNTVYLQMNSLKPEDTAVYYCAAEFRYSRVYGYNYWGQGSQVTVSS”, the “polyreactivity (PSR sort gate)” value was “high polyreactivity”.
In the case of “QVQLVESGGGLVQAGGSLRLSCAASGSTFYGYAMGWYRQAPGKERELVAVISWRGTSTYYADSVKGRFTISRDNAKNTVYLQMNSLKPEDTAVYYCAARGLWPYDYWGQGTQVTVSS”, the “polyreactivity (PSR sort gate)” value is reported as “low polyreactivity”.
For “QVQLVESGGGLVQAGGSLRLSCAASGSTFYGYGMGWYRQAPGKERELVAAITGSGDTTYYADSVKGRFTISRDNAKNTVYLQMNSLKPEDTAVYYCAADLTVRYDYWGQGTQVTVSS”, the “polyreactivity (PSR sort gate)” value was “low polyreactivity”.
For “QVQLVESGGGLVQAGGSLRLSCAASGSTFYGYGMGWYRQAPGKEWELVAAITGSGDTTYYADSVKGRFTISRDNAKNTVYLQMNSLKPEDTAVYYCNARWHAEYDYWGQGTQVTVSS”, the “polyreactivity (PSR sort gate)” value was “low polyreactivity”.
With “QVQLVESGGGLVQAGGSLRLSCAASGSTFYGYGMGWYSQAPGKERELVAAITKSVGSTYYADSVNGRFTISRDNAKNTVYLQMNSLKPEDTAVYYCARSTRYRRGPSQYAGTYDYWGQGTQVTVSS” the “polyreactivity (PSR sort gate)” value was “low polyreactivity”.
For “QVQLVESGGGLVQAGGSLRLSCAASGSTFYGYTMGWSRQAPGKERELVAVITSGGSTYYADSVKGRFTISRDNAKNTVYLQMNSLKPDDTAVYYCAQRYGYPAYGRPWRIGRTYDYWGQGTQVTVSS”, the “polyreactivity (PSR sort gate)” value was “low polyreactivity”.
In the case of “QVQLVESGGGLVQAGGSLRLSCAASGSTFYHYAMGWYRQAPGKERELVAAISTGGSTYYADSVKGRFTISRDNAKNTVYLQMNSLKPEDTAVEYCNARYIGGYGYWGQGTQVTVSS”, the “polyreactivity (PSR sort gate)” value is reported as “low polyreactivity”.
With “QVQLVESGGGLVQAGGSLRLSCAASGSTFYHYAMGWYRQAPGKERELVAAISTSGGRTYYADSVKGRFTISRDNAKNTVYLQMNSLKPEDTAVYYCAARSYRYYYGFDYWGQGTQVTVSS” the “polyreactivity (PSR sort gate)” value was “low polyreactivity”.
With “QVQLVESGGGLVQAGGSLRLSCAASGSTFYIYDMGWYRQAPGKEREFVAAIDFSGSSTYADSVKGRFTISRDNAKNTVYFQINSLKPDDSAVFDCAAYQIYQYDGPYVYWGQGTQVTVSS” the “polyreactivity (PSR sort gate)” value was “low polyreactivity”.
In the case of “QVQLVESGGGLVQAGGSLRLSCAASGSTFYKNAMGWYRPAPGKERELVAAISGSGGRTYYADSVKGRFTISRDNAKNTVYLQMNSLKPEDTAVYYCNAARAYYSLYYGLDYWGQGTQVTVSS”, the “polyreactivity (PSR sort gate)” value is reported as “high polyreactivity”.
With “QVQLVESGGGLVQAGGSLRLSCAASGSTFYKNAMGWYRQAPGKEREFVAAIRSGDSTNYADSVKGRFTISRDNAKNTVYIQMNSLKPEDSAVYYCARDRPGDYAGYDYWGQGSQVTVSS” the “polyreactivity (PSR sort gate)” value was “low polyreactivity”.
In the case of “QVQLVESGGGLVQAGGSLRLSCAASGSTFYKNAMGWYRQAPGKERELVAAITRSGGSTYYADSVKGRFTISRDNAKNTVYLQMNSLKPEDTAVYYCAYYPYGYDYWGQGTQVTVSS”, the “polyreactivity (PSR sort gate)” value is reported as “high polyreactivity”.
With “QVQLVESGGGLVQAGGSLRLSCAASGSTFYKYAMGGYRQAPGKERELVASITSGGRTYYADSEKGRFTISRDNAKNTVYLQMNSLKPDDTAVYYCAKRYGRLTRYDYWGQGTQVTVSS” the “polyreactivity (PSR sort gate)” value was “high polyreactivity”.
For “QVQLVESGGGLVQAGGSLRLSCAASGSTFYKYAMGRYREAPRKERELVASISRSGGSTSYADSVTGRFTISRDNAKNTVYLQMNSLTPEDTAVYYCAATWRQHPGSMGYWGQGTQVTVSS”, the “polyreactivity (PSR sort gate)” value was “high polyreactivity”.
In the case of “QVQLVESGGGLVQAGGSLRLSCAASGSTFYKYAMGWYRQAPGKERELVAVITDGGSTTYADSVKGRFTISRDNAKNTVYLQMNSLKPEDTAVYYCAADYYLRKTRFESWGQGTQVTVSS”, the “polyreactivity (PSR sort gate)” value is reported as “low polyreactivity”.
For “QVQLVESGGGLVQAGGSLRLSCAASGSTFYKYAMGWYRQAPGKERELVAVITKSGGSTYYADSVKGRFTISRDNEKNTVYLQMNSLKPEDTAVYYCAAEDHYGYNSGYDYWGQGTQVTVSS”, the “polyreactivity (PSR sort gate)” value was “high polyreactivity”.
For “QVQLVESGGGLVQAGGSLRLSCAASGSTFYKYGMGRNTQAHGKERELVAAISGSGDSTYYADSVKGRFTISRDNAKNSVYLQMNSLKPEDTAVYYCNAGPWCYLHEYDYWGQGTQVTVSS”, the “polyreactivity (PSR sort gate)” value was “low polyreactivity”.
With “QVQLVESGGGLVQAGGSLRLSCAASGSTFYKYTMGWYRQAPGKERELVAAISGSGTTTYYADSVKGRFTISRDNAKNTVYLQMNSLKPEDTAVYYCAARRFSPGSSGHGYWGQGTQVTVSS” the “polyreactivity (PSR sort gate)” value was “high polyreactivity”.
For “QVQLVESGGGLVQAGGSLRLSCAASGSTFYKYTMGWYRQAPGKERELVAAISGSGTTTYYADSVKGRFTISRDNAKNTVYLQMNSLNPEDTAVYYCAASLYLYNSRITVRSHYYYWGQGTQVTVSS”, the “polyreactivity (PSR sort gate)” value was “high polyreactivity”.
With “QVQLVESGGGLVQAGGSLRLSCAASGSTFYLYAKVWYRQAPGKERELVAAISWSGGDTYYADSVKGRFTISRDKAKNTVYLQMNSLKPEDTAVYYCAAEISYSSPGSPRRRDYWGQGTQVTVSS” the “polyreactivity (PSR sort gate)” value was “low polyreactivity”.
With “QVQLVESGGGLVQAGGSLRLSCAASGSTFYLYAMGWYRQAPGKEREFVAAISWSGGRTYYADSVKGRFTISRDNAKNTVYLQMNSLKPEDTAVYYCAAKPLFGTRDDYWGQGTQVTVSS” the “polyreactivity (PSR sort gate)” value was “low polyreactivity”.
With “QVQLVESGGGLVQAGGSLRLSCAASGSTFYLYAMGWYRQAPGKERELVAAISWTGGSTTYADSVKGRFTISRDNAKNTVYLQMNSLKPEDTAVYYCAADEGLIDGRAWYGYWGQGTQVTVSS” the “polyreactivity (PSR sort gate)” value was “low polyreactivity”.
For “QVQLVESGGGLVQAGGSLRLSCAASGSTFYLYDMGWYRQAPGKERELVATITSGTSTTYADSVKGRFTISRDNAKNTVYLQMISLKPEDTAVYYCNVYKPPTRGGVLEYGYWGQGTQVTVSS”, the “polyreactivity (PSR sort gate)” value was “low polyreactivity”.
With “QVQLVESGGGLVQAGGSLRLSCAASGSTFYLYTMGWYRLAPGKERELVAAISVSGGSTFYADSVKGRFSISRDNAKNTVYLQKNSLKPEDTAVYYSAADGYLHAGHWRTYGYYYWGQGTQVTVSS” the “polyreactivity (PSR sort gate)” value was “low polyreactivity”.
With “QVQLVESGGGLVQAGGSLRLSCAASGSTFYLYTMGWYRQAPGKERELVAAINRSGGRTYYADSVKGRFTISRDNAKNTVYLQMNSLKPEDTAVYYCATDSVTRGRSRGFDYWGQGTQVTVSS” the “polyreactivity (PSR sort gate)” value was “high polyreactivity”.
For “QVQLVESGGGLVQAGGSLRLSCAASGSTFYNNAMGWYRQAPGKEREFVAAITLSGGRTYYADSVKGRFTISRDNAMNTVYLQMNSLKPEDTAVYYCAAKGTRRGKERNYWGQGTQVTVSS”, the “polyreactivity (PSR sort gate)” value was “high polyreactivity”.
In the case of “QVQLVESGGGLVQAGGSLRLSCAASGSTFYNYAMGWYRPAPGNERELVAAIDTGGSTNYADSVKGRFTISRDNAKNTVYFQMNSLKPEVTALDYCNTVYLYGTHDYWGQGTQVTVSS”, the “polyreactivity (PSR sort gate)” value is reported as “low polyreactivity”.
With “QVQLVESGGGLVQAGGSLRLSCAASGSTFYNYAMGWYRQAPGKEREFVAAITRSGGSTYYADSVKGRFSISRDNAKNTVYLQMNSLKPEDTAVYYCNAGGHWYYHRYRGYYWGQGTQVTVSS” the “polyreactivity (PSR sort gate)” value was “high polyreactivity”.
In the case of “QVQLVESGGGLVQAGGSLRLSCAASGSTFYNYAMGWYRQAPGKERELVAAIRNGGGTNYADSVKGRFTISRDNAKITVYLQMNSLKPEDTAVYYCNKAYGVSGPGVDYWGQGTQVTVSS”, the “polyreactivity (PSR sort gate)” value is reported as “low polyreactivity”.
With “QVQLVESGGGLVQAGGSLRLSCAASGSTFYNYAMGWYRQAPGKERELVAAIRNGGGTNYADSVKGRFTISRDNAKNTVYLQMNSLKPEDTAVYYFNKAYGVSGPGVDYWGQGTQVTVSS” the “polyreactivity (PSR sort gate)” value was “low polyreactivity”.
With “QVQLVESGGGLVQAGGSLRLSCAASGSTFYNYVMGWYRQAPAKERELVAAITSRGGRTYYADSVKGRFTISRDNAKNTVSLQMNSLKPEDTAVYYCARDRGYQSGYDYWGQGTQVTVSS” the “polyreactivity (PSR sort gate)” value was “high polyreactivity”.
With “QVQLVESGGGLVQAGGSLRLSCAASGSTFYPNAMGWYRQAPGKERELVAAITTSGGSTYYADSVKGRCTISRDNAKNTVYLQMNSLKPEDTAVYYCAAEVRDRGWEPYGPIYDYWGQGTQVTVSS” the “polyreactivity (PSR sort gate)” value was “high polyreactivity”.
